Test results reported in patent US20210179726A1 (DINGFU BIOTARGET, published 2021).

How the values were obtained:
[1] = molecular target: T1, hOX40-EGFP on HEK293 cells (human, UniProt P43489 29-277); assay: FACS on hOX40-EGFP HEK293 cells
T1 construct: EGFP fusion expressed on transfected HEK293 cells; also called human OX40
T1 sequence (looked up): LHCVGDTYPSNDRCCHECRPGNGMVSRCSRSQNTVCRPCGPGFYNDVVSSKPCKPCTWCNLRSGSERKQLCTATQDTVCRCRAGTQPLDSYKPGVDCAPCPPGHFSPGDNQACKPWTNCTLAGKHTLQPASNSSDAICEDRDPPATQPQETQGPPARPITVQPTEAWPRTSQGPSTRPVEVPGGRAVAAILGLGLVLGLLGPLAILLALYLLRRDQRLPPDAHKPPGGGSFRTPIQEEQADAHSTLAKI
Method: (§1) The hCD137-EGFP, hOX40-EGFP and hGITR-EGFP cells as described in Example 1 were washed twice in PBS, 10 μg/ml of each chimeric antibody as prepared in Example 3 (m2E7, m2B8, m4H3, m3E7, m1A8, m4G1, m2G3, m2F11 and m3B8) was added to each type of cells and incubated at 4° C. for 30 min. Then it was washed twice with PBS, anti-human Ig-APC (Jackson ImmunoResearch Laboratories, Cat #109-135-098) was added and were incubated at 4° C. for 30 min, washed twice with PBS and resuspended in 300 μl PBS. In FIG. 2, NC represents negative control (PBS), a-hlg-APC represents secondary antibody only, the other panels represent results obtained with each of the corresponding clone, respectively.

[2] = molecular target: T2, hGITR-EGFP on HEK293 cells (human, UniProt Q9Y5U5 26-241); assay: FACS on hGITR-EGFP HEK293 cells
T2 construct: EGFP fusion expressed on transfected HEK293 cells; also called human GITR
T2 sequence (looked up): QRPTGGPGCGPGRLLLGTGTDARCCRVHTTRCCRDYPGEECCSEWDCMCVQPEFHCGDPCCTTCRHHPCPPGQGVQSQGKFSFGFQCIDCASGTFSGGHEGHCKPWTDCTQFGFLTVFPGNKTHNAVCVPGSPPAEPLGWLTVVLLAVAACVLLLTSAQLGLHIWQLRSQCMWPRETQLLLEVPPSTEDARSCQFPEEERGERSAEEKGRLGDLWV
Method: as §1

[3] = molecular target: T3, hCD27-EGFP on HEK293 cells (human, UniProt P26842 20-260); assay: FACS on CD27-EGFP HEK293 cells, 10 µg/ml antibody
T3 construct: EGFP fusion expressed on transfected HEK293 cells; also called CD27-EGFP cells; cell surface CD27
T3 sequence (looked up): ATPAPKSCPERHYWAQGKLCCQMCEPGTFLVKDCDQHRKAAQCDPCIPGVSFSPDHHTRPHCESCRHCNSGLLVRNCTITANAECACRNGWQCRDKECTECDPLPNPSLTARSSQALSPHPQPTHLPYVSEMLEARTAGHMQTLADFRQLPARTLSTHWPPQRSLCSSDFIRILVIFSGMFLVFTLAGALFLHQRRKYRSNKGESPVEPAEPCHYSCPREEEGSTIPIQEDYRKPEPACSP
Method: 5×10⁵ CD27-EGFP cells prepared in Example 1 were washed twice in PBS, 10 μg/ml of each chimeric antibody prepared in Example 3 (m2E7, m2B8, m4H3, m3E7, m1A8, m4G1, m2G3, m2F11 and m3B8) was added to the cells and incubated at 4° C. for 30 min. Then it was washed twice in PBS, anti-human Ig-APC (Jackson ImmunoResearch Laboratories, Cat #109-135-098) was added, incubated at 4° C. for 30 min, washed twice with PBS and resuspended in 300 μl PBS. In FIG. 1, NC represents negative control (PBS), a-hlg-APC represents secondary antibody only, the other panels represent results obtained with each of the corresponding clone, respectively.

[4] = molecular target: T4, hCD137-EGFP on HEK293 cells (human, UniProt Q07011 24-255); assay: FACS on hCD137-EGFP HEK293 cells
T4 construct: EGFP fusion expressed on transfected HEK293 cells; also called human CD137
T4 sequence (Q07011 24-255): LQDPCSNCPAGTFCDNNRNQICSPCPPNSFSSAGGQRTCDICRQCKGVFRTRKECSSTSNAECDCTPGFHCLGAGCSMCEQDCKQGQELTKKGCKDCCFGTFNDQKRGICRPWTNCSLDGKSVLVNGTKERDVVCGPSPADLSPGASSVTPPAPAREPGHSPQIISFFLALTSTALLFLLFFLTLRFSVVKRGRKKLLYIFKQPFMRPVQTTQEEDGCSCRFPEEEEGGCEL
Method: as §1

- binding result [1]: no binding (tested: 10 µg/ml)
- binding result [2]: no binding (tested: 10 µg/ml)
- binding result [3]: binds
- binding result [4]: no binding (tested: 10 µg/ml)
B1: m3E7 (antibody, human IgG1, V domains shown)
VH: QIQLVQSGPELKKPGETVKISCKASGYTFTTYGMSWVKQAPGKGLHWMGWINTHSGAPTYVDDFKGRFAFSLETSASTAFLQINNLINEDTATYFCAREGDALDYWGQGTSVTVSS
VL: DIVMTQTTAIMSAFPGEKVTMTCSASSSVSYMHWYQQKSGTSPKRWIYDTSKLASGVPVRFSGSGSGTSYSLTISNMEAEDAATYYCQQWSRNPPFTFGAGTKLELK
notes: Chimeric antibody: mouse VH/VL on human IgG1 / human kappa constant regions; also called clone 3E7; not shown: human IgG1 constant region, UniProt P01857
